Reference: patent US20250073334A1

Target: CpG-ST-E2 nanoparticle (ST-E2 with CpG 1826 conjugated in the internal cavity) (Geobacillus stearothermophilus)
Assay: SpyTag-SpyCatcher reaction, SDS-PAGE

Substance: SpyCatcher-H5 hemagglutinin construct
- units of H5 conjugated per nanoparticle (units of H5 per nanoparticle): 17.1
